Laboratory results: publication PMC10157364

Assays:
[1] = target: ON103 and ON203 versus C0008 (SPR, Fig. 1D); assay: SPR; Biacore 3000; antibodies amine-coupled to CM5 chips (about 2,500; 1,500; 1,000 RU); MIF at 42-666 nmol/L in HBS-EP with 0.2% Proclin300 (3 hours, room temperature), 30 uL/minute; Langmuir 1:1 model with mass transfer; mean of flow cells 2-4
[2] = target: all anti-oxMIF antibodies (quantitative oxMIF ELISA, Fig. 1C); assay: ELISA; quantitative oxMIF ELISA: 15 nmol/L C0008, ON103 or ON203 as capture antibodies; human or mouse MIF in buffers with 0.2% Proclin300 as standard curves; EC50

Kd [1]: 3.5 to 6.1 nM
EC50 [2]: 0.6 to 0.7 nM
B1: human MIF treated with 0.2% Proclin300 (oxMIF surrogate) (natural protein)
chain: MPMFIVNTNVPRASVPDGFLSELTQQLAQATGKPPQYIAVHVVPDQLMAFGGSSEPCALCSLHSIGKIGGAQNRSYSKLLCGLLAERLRISPDRVYINYYDMNAANVGWNNSTFA
modifications: treated with 0.2% Proclin300 to transform MIF into an oxMIF surrogate
